Data as given in patent US20230242658A1 (published 2023).
Where a chain is given by its changes, count along the chain named. In names and notes the source's numbering stands.

B1: PR003549 (bispecific antibody, human IgG1, kappa, L234A L235A)
light: DIQMTQSPSTLSASVGDRVTVTCRASQSIYIWLAWYQQKPGKAPNLLIYKASSLETGVPSRFSGSGSGTEFTLTISSLQPDDFATYYCQQYYGSSRTFGQGTKVEIKRTVAAPSVFIFPPSDEQLKSGTASVVCLLNNFYPREAKVQWKVDNALQSGNSQESVTEQDSKDSTYSLSSTLTLSKADYEKHKVYACEVTHQGLSSPVTKSFNRGEC
heavy: EVQLVESGGGLVQPGGSLRLSCAASGFTFSSYWMSWVRQAPGKGLEWVANIKQEGSEKYYVDSVKGRFTISRDNAKNSLYLQMNSLRAEDTAVYYCARDRAVAGAFDIWGQGTMVTVSSASTKGPSVFPLAPSSKSTSGGTAALGCLVKDYFPEPVTVSWNSGALTSGVHTFPAVLQSSGLYSLSSVVTVPSSSLGTQTYICNVNHKPSNTKVDKKVEPKSCDKTHTCPPCPAPEAAGGPSVFLFPPKPKDTLMISRTPEVTCVVVDVSHEDPEVKFNWYVDGVEVHNAKTKPREEQYNSTYRVVSVLTVLHQDWLNGKEYKCKVSNKALGAPIEKTISKAKGQPREPQVYTLPPSREEMTKNQVSLTCLVKGFYPSDIAVEWESNGQPENNYKTTPPVLDSDGSFFLYSKLTVDKSRWQQGNVFSCSVMHEALHNHYTQKSLSLSPGEPKSSDKTHTPPPPPRTEVQLLESGGGLVQLGGSLRLSCAASGFTFSRYAMTWVRQAPEKGLEWVSSISGSGDDTYYGDSVKGRFTISRDNSQNTVYLQMNSLRAEDTAVYFCAKEKAGTTGDYYYNVDVWGQGTTVTVSS
notes: PD-L1x4-1BB IgG-VH: PR000265 + VH of PR001758 at heavy-chain C-terminus
B2: PR003550 (bispecific antibody, human IgG1, kappa, L234A L235A)
light: B1 light
heavy: EVQLVESGGGLVQPGGSLRLSCAASGFTFSSYWMSWVRQAPGKGLEWVANIKQEGSEKYYVDSVKGRFTISRDNAKNSLYLQMNSLRAEDTAVYYCARDRAVAGAFDIWGQGTMVTVSSASTKGPSVFPLAPSSKSTSGGTAALGCLVKDYFPEPVTVSWNSGALTSGVHTFPAVLQSSGLYSLSSVVTVPSSSLGTQTYICNVNHKPSNTKVDKKVEPKSCDKTHTCPPCPAPEAAGGPSVFLFPPKPKDTLMISRTPEVTCVVVDVSHEDPEVKFNWYVDGVEVHNAKTKPREEQYNSTYRVVSVLTVLHQDWLNGKEYKCKVSNKALGAPIEKTISKAKGQPREPQVYTLPPSREEMTKNQVSLTCLVKGFYPSDIAVEWESNGQPENNYKTTPPVLDSDGSFFLYSKLTVDKSRWQQGNVFSCSVMHEALHNHYTQKSLSLSPGEPKSSDKTHTPPPPPRTEVQLVESGGGVVQPGGSLRLSCAASGFTFSNYAMTWVRQAPEKGLEWVSSISGSGVSTYYADSVKGRFTISRDNSKNTLYLQMTRLTAEDTAVYFCAKEGSSETDDHYYNVDVWGQGTTVTVSS
notes: PD-L1x4-1BB IgG-VH: PR000265 + VH of PR001760 at heavy-chain C-terminus
B3: PR004268 (bispecific antibody, human IgG1, kappa, L234A L235A)
light: B1 light
heavy: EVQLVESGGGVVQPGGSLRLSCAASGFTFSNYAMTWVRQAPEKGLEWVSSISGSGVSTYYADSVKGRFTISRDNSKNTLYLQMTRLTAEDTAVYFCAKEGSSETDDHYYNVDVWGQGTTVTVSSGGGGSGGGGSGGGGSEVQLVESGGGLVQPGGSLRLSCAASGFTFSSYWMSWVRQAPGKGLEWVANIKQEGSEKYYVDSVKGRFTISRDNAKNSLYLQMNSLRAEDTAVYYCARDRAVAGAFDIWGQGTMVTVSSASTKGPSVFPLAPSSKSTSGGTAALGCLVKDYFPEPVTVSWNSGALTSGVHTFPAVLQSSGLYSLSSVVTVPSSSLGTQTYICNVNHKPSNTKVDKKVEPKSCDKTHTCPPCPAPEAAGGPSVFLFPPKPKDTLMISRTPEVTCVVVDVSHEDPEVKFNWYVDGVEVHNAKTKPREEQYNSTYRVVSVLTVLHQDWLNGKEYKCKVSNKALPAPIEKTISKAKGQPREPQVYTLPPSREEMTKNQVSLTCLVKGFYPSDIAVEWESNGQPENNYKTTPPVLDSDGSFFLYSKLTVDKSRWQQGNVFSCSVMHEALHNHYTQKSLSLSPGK
notes: PD-L1x4-1BB IgG-VH: VH of PR001760 at heavy-chain N-terminus of PR000265, linker GS_15
B4: PR003551 (bispecific antibody, human IgG1, kappa, L234A L235A)
light: B1 light
heavy: EVQLVESGGGLVQPGGSLRLSCAASGFTFSSYWMSWVRQAPGKGLEWVANIKQEGSEKYYVDSVKGRFTISRDNAKNSLYLQMNSLRAEDTAVYYCARDRAVAGAFDIWGQGTMVTVSSASTKGPSVFPLAPSSKSTSGGTAALGCLVKDYFPEPVTVSWNSGALTSGVHTFPAVLQSSGLYSLSSVVTVPSSSLGTQTYICNVNHKPSNTKVDKKVEPKSCDKTHTCPPCPAPEAAGGPSVFLFPPKPKDTLMISRTPEVTCVVVDVSHEDPEVKFNWYVDGVEVHNAKTKPREEQYNSTYRVVSVLTVLHQDWLNGKEYKCKVSNKALGAPIEKTISKAKGQPREPQVYTLPPSREEMTKNQVSLTCLVKGFYPSDIAVEWESNGQPENNYKTTPPVLDSDGSFFLYSKLTVDKSRWQQGNVFSCSVMHEALHNHYTQKSLSLSPGEPKSSDKTHTPPPPPRTEVQLLESGGGLVQPGGSLRLSCAASGFIFSNFAMTWVRQPPEKGLKWVSSINGSGFNTYYTDSVKGRFTISRDNSRNTLYLQMNRLTAEDTAVYFCAKEGSSETDDHYYNVDVWGQGTTVTVSS
notes: PD-L1x4-1BB IgG-VH: PR000265 + VH of PR001836 at heavy-chain C-terminus
B5: PR004270 (bispecific antibody, human IgG1)
chain 1: EVQLVESGGGLVQPGGSLRLSCAASGFTFSSYWMSWVRQAPGKGLEWVANIKQEGSEKYYVDSVKGRFTISRDNAKNSLYLQMNSLRAEDTAVYYCARDRAVAGAFDIWGQGTMVTVSSASTKGPSVFPLAPSSKSTSGGTAALGCLVKDYFPEPVTVSWNSGALTSGVHTFPAVLQSSGLYSLSSVVTVPSSSLGTQTYICNVNHKPSNTKVDKKVEPKSC
chain 2: not shown
notes: PD-L1x4-1BB Fab-HCAb symmetric structure: Fab of PR000265, VH of PR001760, human IgG1 (L234A, L235A)
B6: PR001775 (antibody, human IgG1, V domains shown)
VH: EVQLLESGGGLVQSGGSLRLSCAASGFTFSSYAMSWVRQAPGKGLEWVSAISGSGGSTDYADSVKGRFTISRDNSTNTLYLQMNSLRAEDTAVYYCAKERAYDYSNYVDFDYWGQGTLVTVSS
notes: HCAb, heavy chain only, human IgG1 Fc; also called 1016P0046A9
B7: PR001776 (antibody, human IgG1, V domains shown)
VH: EVQLLESGGGLVQPGGSLRLSCAASGFTFSSYAMSWVRQAPEKGLEWVSAISSSGGSTYYADSVKGRFTISRDNSKNTLYLQMNSLRAEDTAVYYCAKDGVTTPSYYYYYDMDVWGQGTTVTVSS
notes: HCAb, heavy chain only, human IgG1 Fc; also called 1016P0049C7
B8: PR001764 (antibody, human IgG1, V domains shown)
VH: EVQLLESGGGLVQPGGSLRLSCAASGFTFSSYAMSWVRQAPEKGLEWVSAISGGGGSTYYADSVKGRFTISRDNSKNTLYLQMDSLKAEDTAVYYCAKEGTTETDDYHYNMDVWGQGTTVTVSS
notes: HCAb, heavy chain only, human IgG1 Fc; also called 1016P0022E5
B9: PR001836 (antibody, human IgG1, V domains shown)
VH: EVQLLESGGGLVQPGGSLRLSCAASGFIFSNFAMTWVRQPPEKGLKWVSSINGSGFNTYYTDSVKGRFTISRDNSRNTLYLQMNRLTAEDTAVYFCAKEGSSETDDHYYNVDVWGQGTTVTVSS
notes: HCAb, heavy chain only, human IgG1 Fc; also called 1016P0020G4
B10: PR001830 (antibody, human IgG1, V domains shown)
VH: EVQLLESGGGLVQPGGSLRLSCTASGFTFSNYAMSWVRQAPEKGLEWVSSISGSGGSTFYADSVKGRFTISRDNSKNTLYLQMNSLRAEDTAVYFCAKEGSSETDDHYYNVDVWGQGTTVTVSS
notes: HCAb, heavy chain only, human IgG1 Fc; also called 1016P0014G8
B11: PR001833 (antibody, human IgG1, V domains shown)
VH: B10 VH with T23A, N31S, S101A, S102T, H107Y, Y108H, Y109F, V111T
notes: HCAb, heavy chain only, human IgG1 Fc; also called 1016P0016F8
B12: PR004469 (antibody, human IgG1, V domains shown)
VH: EVQLLESGGGLVQPGGSLRLSCAASGFTFSNYAMSWFRQPPETGLKWVSSIDASGGDTYYADSVKGRFTISRDNSKNTLYLQMNSLRAEDTAVYYCAKEGSHGTDDSHYDVDVWGQGTTVTVSS
notes: HCAb, PTM variant of PR001838 (G53A), human IgG1

Target: T1, human PD-L1 on CHO-K1 cells (human, UniProt Q9NZQ7 19-290)
T1 construct: whole, on cells; also called CHO-K1/hPDL1; CHO-K1/hPD-L1
T1 sequence (Q9NZQ7 19-290): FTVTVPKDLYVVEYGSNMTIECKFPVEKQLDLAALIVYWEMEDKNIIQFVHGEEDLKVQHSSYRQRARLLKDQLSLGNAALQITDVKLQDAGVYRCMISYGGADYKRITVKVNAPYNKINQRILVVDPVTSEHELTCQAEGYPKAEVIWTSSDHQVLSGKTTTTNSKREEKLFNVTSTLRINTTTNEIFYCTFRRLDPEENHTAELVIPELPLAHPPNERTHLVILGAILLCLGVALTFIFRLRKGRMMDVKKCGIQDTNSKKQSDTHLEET
Assay: FACS, CHO-K1/hPD-L1 cells

| Binder | binding result |
| --- | --- |
| B1 | binds |
| B2 | binds |
| B3 | binds |
| B4 | binds |
| B5 | binds |

Target: T2, human 4-1BB on CHO-K1 cells (human, UniProt Q07011 24-255)
T2 construct: whole, on cells; also called CHO-K1/hu 4-1BB; CHO-K1/hu4-1BB
T2 sequence (Q07011 24-255): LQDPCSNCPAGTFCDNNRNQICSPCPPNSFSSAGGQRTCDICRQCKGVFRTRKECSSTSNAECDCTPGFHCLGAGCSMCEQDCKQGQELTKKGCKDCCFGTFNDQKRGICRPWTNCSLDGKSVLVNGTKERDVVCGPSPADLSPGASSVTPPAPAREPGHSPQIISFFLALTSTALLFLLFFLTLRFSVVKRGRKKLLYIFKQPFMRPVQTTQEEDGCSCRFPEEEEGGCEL
Assay: FACS, CHO-K1/hu4-1BB cells
Procedure: The binding abilities of the antibody molecules to a CHO-K1 cell strain highly expressing human 4-1BB (CHO-K1/hu4-1BB, GenScript, M00538) and a CHO-K1 cell strain highly expressing cynomolgus monkey 4-1BB (CHO-K1/cyno4-1BB, GenScript, M00569) were determined by flow cytometry FACS. Specifically, the cells were digested and resuspended in a complete medium, and the cell density was adjusted to 2×10⁶ cells/mL. Then, the cells were seeded in a 96-well V-bottom plate (Corning, #3894) at 100 μL/well (2×10⁵ cells/well) and centrifuged at 4° C. for 5 min, and the supernatant was discarded. Then, the serially diluted antibody molecules were added to the 96-well plate at 100 μL/well, and the mixtures were well mixed. The antibody molecules might serially diluted 3-fold from the highest final concentration 200 nM to obtain a total of 12 concentrations. hIgG1 iso (CrownBio, #C0001) was used as an isotype control. The cells were incubated at 4° C. for 1 h away from light. Then, the cells in each well were rinsed twice with 100 μL of pre-cooled FACS buffer (PBS buffer containing 0.5% BSA) and centrifuged at 500 g at 4° C. for 5 min, and then the supernatant was discarded. […] Then, the cells in each well were then rinsed twice with 200 μL of pre-cooled FACS buffer and centrifuged at 500 g at 4° C. for 5 min, and then the supernatant was discarded. Finally, a pre-cooled FACS buffer was added at 200 μL/well to resuspend the cells. The fluorescence signal values were read using a BD FACS CANTOII flow cytometer.

| Binder | binding result |
| --- | --- |
| B1 | binds |
| B4 | binds |

Target: T2, human 4-1BB on CHO-K1 cells
Assay: FACS, CHO-K1/hu 4-1BB cells

| Binder | binding result | EC50 |
| --- | --- | --- |
| B6 | binds | – |
| B7 | binds | – |
| B8 | – | < 0.3 nM |
| B9 | – | < 0.3 nM |
| B10 | – | < 0.3 nM |
| B11 | – | < 0.3 nM |
| B12 | binds | – |

Target: T3, histidine-labeled human 4-1BB protein (human, UniProt Q07011 24-186)
T3 construct: also called Human 4-1BB protein antigen (histidine-labeled); human 4-1BB protein and his tag (Acrobiosystem, #41B-H5227); not shown: histidine tag
T3 sequence (Q07011 24-186): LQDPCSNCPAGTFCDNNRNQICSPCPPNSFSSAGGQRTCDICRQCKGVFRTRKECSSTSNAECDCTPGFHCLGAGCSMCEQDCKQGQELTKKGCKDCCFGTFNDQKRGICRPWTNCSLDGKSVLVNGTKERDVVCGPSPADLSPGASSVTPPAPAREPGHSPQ
Assay: BLI Octet RED96, AHC sensor, his-tagged antigen
Procedure: (§1) Specifically, human 4-1BB protein and his tag (Acrobiosystem, #41B-H5227), or cynomolgus monkey 4-1BB protein and his tag (Acrobiosystem, #41B-052H4), were diluted to 400 nM with PBS buffer (pH 7.4) containing 0.1% (w/w) BSA and 0.02% (v/v) Tween 20, and incubated with the AHC sensor. A 40 nM 4-1BB antibody was incubated with the AHC sensor loaded with human 4-1BB protein or monkey 4-1BB protein at 30° C. for 3 min. The reaction mixture was incubated in PBS buffer (pH 7.4) containing 0.1% (v/w) BSA and 0.02% (v/v) Tween 20 at 30° C. for another 5 min The binding and separation signals between the 4-1BB antibody and 4-1BB protein were recorded by Octet Red 96 in real time. The affinity and association and dissociation constants were determined by Octet using software.

| Binder | Kd | Response | koff | kon |
| --- | --- | --- | --- | --- |
| B9 | 13.5 nM | 0.294 | 0.00322 s⁻¹ | 239000 M⁻¹ s⁻¹ |
| B10 | 24.9 nM | 0.307 | 0.00664 s⁻¹ | 266000 M⁻¹ s⁻¹ |
| B11 | 23.4 nM | 0.311 | 0.00506 s⁻¹ | 216000 M⁻¹ s⁻¹ |

Target: T4, histidine-labeled cynomolgus monkey 4-1BB protein (cynomolgus monkey)
T4 construct: also called Monkey 4-1BB protein antigen (histidine-labeled); cynomolgus monkey 4-1BB protein and his tag (Acrobiosystem, #41B-052H4)
Assay: BLI Octet RED96, AHC sensor, his-tagged antigen
Procedure: as §1

| Binder | Kd | Response | koff | kon |
| --- | --- | --- | --- | --- |
| B9 | 8.89 nM | 0.25 | 0.00147 s⁻¹ | 165000 M⁻¹ s⁻¹ |
| B10 | 18.1 nM | 0.222 | 0.00347 s⁻¹ | 192000 M⁻¹ s⁻¹ |
| B11 | 22.3 nM | 0.273 | 0.00309 s⁻¹ | 139000 M⁻¹ s⁻¹ |
